In patent US20240209089A1 one finds OD450 data, which are given here for one substance.

For assay [1], the target named is Fc protein. Description: phage ELISA on coated Fc protein, blank control. For orientation: ELISA stands for enzyme-linked immunosorbent assay.
The target in assay [2] is CD8α-Fc fusion protein (human). Briefly: phage ELISA on coated CD8α-Fc, blank control.

Where “and” joins values, the source holds several entries; their conditions need not be identical. Identical values can stand only once.

CD8α-Fc fusion protein (human), sequence (chain, as listed by the source): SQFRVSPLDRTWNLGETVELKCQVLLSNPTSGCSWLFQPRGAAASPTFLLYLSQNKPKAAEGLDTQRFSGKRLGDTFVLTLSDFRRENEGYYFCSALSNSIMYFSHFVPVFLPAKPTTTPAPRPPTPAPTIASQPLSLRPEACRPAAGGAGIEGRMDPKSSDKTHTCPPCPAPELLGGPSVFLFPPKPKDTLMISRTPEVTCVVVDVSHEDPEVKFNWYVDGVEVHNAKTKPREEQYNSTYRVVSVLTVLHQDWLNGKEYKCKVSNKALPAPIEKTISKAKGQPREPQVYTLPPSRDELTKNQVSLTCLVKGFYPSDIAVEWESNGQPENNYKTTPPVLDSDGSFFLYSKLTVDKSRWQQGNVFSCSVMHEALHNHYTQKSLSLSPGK

With blank phage, the OD450 in assay [1] is 0.093 and 0.068; in assay [2], 0.067.
